Reference: publication PMC3217859, “Protein phosphatase 2a (PP2A) binds within the oligomerization domain of striatin and regulates the phosphorylation and activation of the mammalian Ste20-Like kinase Mst3” (BMC Biochemistry, 2011)

Experiments:
Assay in all cases: co-IP; anti-HA immunoprecipitates (12CA5 with protein A-Sepharose, or F7 anti-HA-agarose when probing for Mst3 or Mst4; 1.5 h, 4°C) of lysates (1% Nonidet P-40, 0.135 M NaCl, 10% glycerol, 20 mM Tris pH 8.0) of HEK293 cells transfected with HA-striatins; endogenous partners by immunoblot, partner/HA-striatin ratio by chemilumimager against wild type; 50 mM NaF and 100 nM okadaic acid in the lysis buffer in the …
Details in all cases: partners not purified
[1] = biological target: T1, HA-tagged Δ(227-309) striatin (human, UniProt O43815 1-780, Δ(227-309))
T1 construct: source: HEK293, transfected, in lysate; not shown: HA, N-terminal, kept
T1 sequence (looked up): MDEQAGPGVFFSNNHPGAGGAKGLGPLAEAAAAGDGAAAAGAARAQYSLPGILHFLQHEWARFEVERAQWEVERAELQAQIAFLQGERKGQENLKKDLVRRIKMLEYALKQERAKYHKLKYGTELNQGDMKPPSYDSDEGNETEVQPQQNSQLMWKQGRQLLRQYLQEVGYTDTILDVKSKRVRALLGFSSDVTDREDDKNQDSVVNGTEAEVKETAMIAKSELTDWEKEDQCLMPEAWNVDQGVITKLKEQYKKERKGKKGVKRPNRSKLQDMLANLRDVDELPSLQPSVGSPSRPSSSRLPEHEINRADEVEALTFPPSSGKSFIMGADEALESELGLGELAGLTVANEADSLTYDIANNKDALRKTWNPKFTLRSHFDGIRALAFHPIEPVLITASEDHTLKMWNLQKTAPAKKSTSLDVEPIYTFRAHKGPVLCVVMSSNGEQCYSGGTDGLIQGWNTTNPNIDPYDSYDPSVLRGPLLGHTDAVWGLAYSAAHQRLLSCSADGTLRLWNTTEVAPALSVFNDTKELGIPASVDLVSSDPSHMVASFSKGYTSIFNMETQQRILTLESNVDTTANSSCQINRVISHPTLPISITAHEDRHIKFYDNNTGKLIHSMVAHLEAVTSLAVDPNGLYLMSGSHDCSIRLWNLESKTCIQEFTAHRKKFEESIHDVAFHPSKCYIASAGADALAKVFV

[2] = biological target: T2, HA-tagged Δ(3-309) striatin (human, UniProt O43815 1-780, Δ(3-309))
T2 construct: source: HEK293, transfected, in lysate; not shown: HA, N-terminal, kept
T2 sequence (looked up): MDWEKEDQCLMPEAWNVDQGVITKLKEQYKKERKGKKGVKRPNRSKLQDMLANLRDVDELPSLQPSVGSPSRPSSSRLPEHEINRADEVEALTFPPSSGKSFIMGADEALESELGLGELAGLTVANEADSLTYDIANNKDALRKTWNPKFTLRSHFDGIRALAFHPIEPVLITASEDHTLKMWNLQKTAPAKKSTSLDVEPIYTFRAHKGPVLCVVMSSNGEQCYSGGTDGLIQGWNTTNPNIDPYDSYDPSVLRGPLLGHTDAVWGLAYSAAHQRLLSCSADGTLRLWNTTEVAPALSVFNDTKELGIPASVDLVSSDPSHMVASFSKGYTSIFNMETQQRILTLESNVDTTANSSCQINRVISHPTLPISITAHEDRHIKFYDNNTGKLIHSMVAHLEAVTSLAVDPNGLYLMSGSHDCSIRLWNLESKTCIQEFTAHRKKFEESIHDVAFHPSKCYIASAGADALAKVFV

[3] = biological target: T3, HA-tagged Δ(70-116) striatin (human, UniProt O43815 1-780, Δ(70-116))
T3 construct: also called coiled-coil deletion mutant; source: HEK293, transfected, in lysate; not shown: HA, N-terminal, kept
T3 sequence (looked up): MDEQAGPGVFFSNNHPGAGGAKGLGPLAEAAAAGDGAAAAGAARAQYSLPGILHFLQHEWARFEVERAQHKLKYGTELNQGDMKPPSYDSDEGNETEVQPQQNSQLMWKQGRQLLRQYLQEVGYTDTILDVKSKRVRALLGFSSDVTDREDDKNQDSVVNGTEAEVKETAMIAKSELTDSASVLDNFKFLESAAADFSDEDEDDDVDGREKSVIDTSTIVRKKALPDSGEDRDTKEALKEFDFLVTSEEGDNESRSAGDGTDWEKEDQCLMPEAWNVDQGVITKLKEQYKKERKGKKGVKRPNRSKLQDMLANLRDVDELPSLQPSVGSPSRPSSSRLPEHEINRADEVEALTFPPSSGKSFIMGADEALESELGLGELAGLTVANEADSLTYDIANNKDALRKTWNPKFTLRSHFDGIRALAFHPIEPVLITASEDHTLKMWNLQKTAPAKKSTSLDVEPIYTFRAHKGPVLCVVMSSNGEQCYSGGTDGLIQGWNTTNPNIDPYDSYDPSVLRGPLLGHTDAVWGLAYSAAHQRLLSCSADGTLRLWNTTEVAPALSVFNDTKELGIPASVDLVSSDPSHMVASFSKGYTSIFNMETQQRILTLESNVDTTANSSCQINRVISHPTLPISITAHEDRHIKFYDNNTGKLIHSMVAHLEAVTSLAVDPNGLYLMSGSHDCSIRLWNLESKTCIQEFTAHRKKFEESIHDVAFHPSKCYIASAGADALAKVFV

percent of the wild-type level bound [1]: 75 % of wild-type levels
percent of the wild-type level bound [2]: ~40 % of wild-type level
percent of the wild-type level bound [3]: 40 % of wild-type levels
B1: Mob3/phocein (natural protein, human (endogenous in HEK293), UniProt Q9Y3A3 1-225, looked up)
chain: MVMAEGTAVLRRNRPGTKAQDFYNWPDESFDEMDSTLAVQQYIQQNIRADCSNIDKILEPPEGQDEGVWKYEHLRQFCLELNGLAVKLQSECHPDTCTQMTATEQWIFLCAAHKTPKECPAIDYTRHTLDGAACLLNSNKYFPSRVSIKESSVAKLGSVCRRIYRIFSHAYFHHRQIFDEYENETFLCHRFTKFVMKYNLMSKDNLIVPILEEEVQNSVSGESEA
notes: source: endogenous, HEK293 lysate
